Data reported in PMC11257509 (bioRxiv, 2024).

Molecular target: the molecule itself
Assay: SEC

B1: 10His-pG-Tn5(E54K, L372P) (enzyme, UniProt Q46731 1-476, looked up)
chain: MITSALHRAADWAKSVFSSAALGDPRRTARLVNVAAQLAKYSGKSITISSEGSKAMQEGAYRFIRNPNVSAEAIRKAGAMQTVKLAQEFPELLAIEDTTSLSYRHQVAEELGKLGSIQDKSRGWWVHSVLLLEATTFRTVGLLHQEWWMRPDDPADADEKESGKWLAAAATSRLRMGSMMSNVIAVCDREADIHAYLQDKLAHNERFVVRSKHPRKDVESGLYLYDHLKNQPELGGYQISIPQKGVVDKRGKRKNRPARKASLSLRSGRITLKQGNITLNAVLAEEINPPKGETPLKWLLLTSEPVESLAQALRVIDIYTHRWRIEEFHKAWKTGAGAERQRMEEPDNLERMVSILSFVAVRLLQLRESFTPPQALRAQGLLKEAEHVESQSAETVLTPDECQLLGYLDKGKRKRKEKAGSLQWAYMAIARLGGFMDSKRTGIASWGALWEGWEALQSKLDGFLAAKDLMAQGIKI
B1: binds.
